Consider two molecules from US20260242735A1 (UNIVERSIT T BASEL, published 2026).

Experiment [1] has as its target human CD33 extracellular region F21L (human, UniProt P20138 22-259). The experiment is described as follows: BLI Octet, IgG captured on AHC, CD33 analyte.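 Further: CD33 variants and wild type run as analyte at 5, 50 and 500 nM, 700 s association then 1200 s dissociation, buffer-only reference subtracted, global 1:1 fit.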 On the technique in general: BLI is a label-free optical method that tracks binding on a fibre tip over time.
Description: Human CD33 wt and variants, were used as analyte at 3 different concentrations (500, 50 and 5 nM). Association of the analyte to the antibodies was monitored for 700 s and dissociation of the analyte from the antibodies was monitored for 1200 s. Reference subtraction was performed against buffer only wells. AHC tips were regenerated using 10 mM Glycine-HCl pH 1.7. Data were analyzed with Octet Data Analysis software HT 12.0. Data were fitted to a 1:1 binding model. Kinetic rates ka and kd and response signal were globally fitted.
Another experiment has as its target human CD33 N20P (human, UniProt P20138 18-364). The experiment is described as follows: flow cytometry, transfected cells.
The next experiment addresses human CD33 F21V (human, UniProt P20138 18-364). The experiment is described as follows: flow cytometry, transfected cells. In general terms: A flow cytometer gives signals particle by particle.
The target of another experiment is human CD33 N20Q (human, UniProt P20138 18-364). The experiment is described as follows: flow cytometry, transfected cells.
A further experiment deals with human CD33 P19K (human, UniProt P20138 18-364). Description: flow cytometry, transfected cells.
A further experiment has as its target human CD33 P46R (human, UniProt P20138 18-364). The experiment is described as follows: flow cytometry, transfected cells.

Chain of human CD33 F21V (P20138 18-364 F21V limits assumed): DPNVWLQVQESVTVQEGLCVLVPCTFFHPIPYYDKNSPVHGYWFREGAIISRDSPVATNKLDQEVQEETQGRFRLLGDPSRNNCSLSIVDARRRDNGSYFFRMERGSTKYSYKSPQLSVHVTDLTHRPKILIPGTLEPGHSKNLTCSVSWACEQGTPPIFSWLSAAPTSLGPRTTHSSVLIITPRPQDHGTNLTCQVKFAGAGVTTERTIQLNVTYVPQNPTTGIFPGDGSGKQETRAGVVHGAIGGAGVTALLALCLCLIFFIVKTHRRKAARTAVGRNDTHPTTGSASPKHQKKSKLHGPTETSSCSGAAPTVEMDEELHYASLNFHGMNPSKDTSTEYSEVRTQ
Chain of human CD33 P46R (P20138 18-364 P46R limits assumed): as the sequence (P20138 18-364 F21V limits assumed) above, with V4F, P29R counted along it
Chain of human CD33 N20P (P20138 18-364 N20P limits assumed): as the sequence (P20138 18-364 F21V limits assumed) above, with N3P, V4F counted along it
Chain of human CD33 P19K (P20138 18-364 P19K limits assumed): as the sequence (P20138 18-364 F21V limits assumed) above, with P2K, V4F counted along it
Chain of human CD33 N20Q (P20138 18-364 N20Q limits assumed): as the sequence (P20138 18-364 F21V limits assumed) above, with N3Q, V4F counted along it
Chain of human CD33 extracellular region F21L (P20138 other isoform, or with tags, fused parts or gaps F21L F21L): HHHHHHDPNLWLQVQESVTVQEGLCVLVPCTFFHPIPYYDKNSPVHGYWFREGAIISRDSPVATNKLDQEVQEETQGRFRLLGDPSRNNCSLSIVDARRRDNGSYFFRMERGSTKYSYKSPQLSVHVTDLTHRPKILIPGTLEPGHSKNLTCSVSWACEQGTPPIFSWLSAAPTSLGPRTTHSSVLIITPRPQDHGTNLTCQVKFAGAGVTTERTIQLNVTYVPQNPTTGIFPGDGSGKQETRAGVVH

B1: Refmab #3 (antibody, human IgG1, V domains shown)
VH: QVQLVQSGAEVKKPGSSVKVSCKASGYTFTDYNMHWVRQAPGQGLEWIGYIYPYNGGTGYNQKFKSKATITADESTNTAYMELSSLRSEDTAVYYCARGRPAMDYWGQGTLVTVSS
VL: DIQMTQSPSSLSASVGDRVTITCRASESVDNYGISFMNWFQQKPGKAPKLLIYAASNQGSGVPSRFSGSGSGTDFTLTISSLQPDDFATYYCQQSKEVPWTFGQGTKVEIK
As to B1, in experiment [1], the “% WT binding” value turned out to be 0%. The binding result in the experiment with human CD33 N20P, in the experiment with human CD33 F21V, in the experiment with human CD33 N20Q, in the experiment with human CD33 P19K and with human CD33 P46R was “no binding (tested: below 20%)” each time.

B2: Refmab #1 (antibody, human IgG1, V domains shown)
VH: EVQLVQSGAEVKKPGSSVKVSCKASGYTITDSNIHWVRQAPGQSLEWIGYIYPYNGGTDYNQKFKNRATLTVDNPTNTAYMELSSLRSEDTAFYYCVNGNPWLAYWGQGTLVTVSS
VL: DIQLTQSPSTLSASVGDRVTITCRASESLDNYGIRFLTWFQQKPGKAPKLLMYAASNQGSGVPSRFSGSGSGTEFTLTISSLQPDDFATYYCQQTKEVPWSFGQGTKVEVK
notes: also called hP67.6; Absolute Antibody Cat. No. Ab00283-10.0
B2: the binding result in the experiment with human CD33 N20P, with human CD33 F21V, with human CD33 N20Q, with human CD33 P19K and with human CD33 P46R was “no binding (tested: below 20%)” in each case.
